This passage reports Kd results from article PMC5662687 (2017).

In the experiment the target is LFA-1 I domain I domain (Homo sapiens, UniProt P20701). Description: SPR.

B1: ICAM-1 (protein)
chain: QTSVSPSKVILPRGGSVLVTCSTSCDQPKLLGIETPLPKKELLLPGNNRKVYELSNVQEDSQPMCYSNCPDGQSTAKTFLTVYWTPERVELAPLPSWQPVGKNLTLRCQVEGGAPRANLTVVLLRGEKELKREPAVGEPAEVTTTVLVRRDHHGANFSCRTELDLRPQGLELFENTSAPYQLQTFVLPATPPQLVSPRVLEVDTQGTVVCSLDGLFPVSEAQVHLALGDQRLNPTVTYGNDSFSAKASVSVTAEDEGTQRLTCAVILGNQSQETLQTVTIYSFPAPNVILTKPEVSEGTEVTVKCEAHPRAKVTLNGVPAQPLGPRAQLLLKATPEDNGRSFSCSATLEVAGQLIHKNQTRELRVLYGPRLDERDCPGNWTWPENSQQTPMCQAWGNPLPELKCLKDGTFPLPIGESVTVTRDLEGTYLCRARSTQGEVTRKVTVNVLSPRYE
On to B1, for which the Kd amounted to 1500 µM.

For orientation: Kd means the equilibrium constant for the complex coming apart. The low end stands for tighter binding, the high end for weaker binding.
